The results in this text go back to patent US11312781B2, “Antigen binding molecules that bind LIGHT” (Capella Bioscience Ltd., priority 2018, dated 2022).

Experiment [1] relates to wild type and mutated membrane LIGHT. In words: Alanine scanning mutagenesis of membrane LIGHT and flow cytometry (HEK293FF cells). In kind it is binding, human. The note with it: single substitutions F57A to E86A and four amino acid substitutions 60-63 to 96-99. An excerpt: The full length LIGHT gene was synthesized by GeneArt (ThermoFisher Scientific) and cloned into the mammalian expression vector pcDNA 3.1(+). The following Ala mutations were introduced into the LIGHT gene: 30 single amino acid alanine substitutions from F57A to E86A; 2 single amino acid alanine substitutions; G188A, R189A; one serine substitution, A190S; 17 single amino acid alanine substitutions; T191A to V207A and 10 four amino acid alanine substitutions, 60-63, 64-67, 68-71, 72-75, 76-79, 80-83, 84-87, 88-91, 92-95 and 96-99. Constructs were reconstituted according to manufacture instructions, using DEPC-treated and sterile filtered water. Competent TOP10 E. coli cells were transformed with 100 ng of each construct and a single colony from each construct was picked and used to inoculate 10 ml of LB/carb100/glu2% medium and grown overnight at 37° C., 200 rpm. The extraction of the construct DNA was performed using the Qiagen QIAprep Spin Miniprep Kit (250) and the concentration was determined by measuring the O.D. at 260 nm in a spectrophotometer.
HEK293FF cells were cultured in Freestyle™293 expression medium (ThermoFisher scientific cat. no. 12338018) supplemented with 2 mM L-Glutamine. The day of transfection the cells were seeded in a 24-well plate at 0.6×10^6 cells/well. Lipofectamine 2000 (ThermoFisher scientific), 3 μl, was mixed with 50 μl OptiMEM medium (GIBCO) and then added to 50 μl Opti-MEM medium containing 3 ug plasmid DNA and incubated for 20 min at RT to form DNA-Lipofectamine 2000 complexes which were then added to the HEK293FF cells and incubated at 37° C., 5% CO2 for 24 hours. For each construct, in duplicate, 0.60×10^6 cells/well were used in a 96 well round bottom plate. Cells were centrifuged for 3 minutes at 300×g at 4° C., the supernatant discarded and the cells washed with 150 μl FACS buffer (0.5% FBS in phosphate buffered saline). This process was repeated 3 times. For each construct, […] cells/well were incubated with anti-LIGHT antibodies at the EC50 concentration and with positive controls of anti-LIGHT mAb MAB664 (R&D Systems), mAb F19 (EP2292663) or LTBR-Fc (R&D Systems), in a final volume of 50 μl/well for 30 min at 4° C., with shaking. The wells were washed 3 times as above and 50 μl/well of goat anti-human IgG FITC (1:1500 dilution in FACS buffer, SIGMA F9512-2ML) or goat anti-mouse APC (1/500 dilution in FACS buffer, BDBioscience 550826), as appropriate, was added to the wells and incubated for 30 min at 4° C. protected from the light, with shaking. The cells were then washed as above, resuspended in 100 μl of FACS buffer and binding of the antibodies to the constructs was measured using flow cytometry and a total of 10,000 cells were acquired for each sample. Controls of buffer and secondary antibody only as well as HEK293FF non transfected cells were also used.
All of the mAbs of this invention show a similar profile in that their epitope is located at amino acids 188-197 of LIGHT. […] The epitope of the mAbs of this invention defined by alanine scanning mutagenesis are residues 188-197 of LIGHT. This is visually depicted in FIG. 8 utilising a 3D visualisation of the LIGHT trimer from the crystal structure of LIGHT from Liu et al. (Structure 22: 1252-62; 2014). This would result in the mAbs binding to the “tip” of the LIGHT trimer and explaining the 1:1 binding. The impact of this epitope would result in […] less dosing of mAb 3B04 being required to neutralise membrane LIGHT compared to, for example, mAbs F19 and F23 (of EP2292663) which bind both soluble and membrane LIGHT equally and bind LIGHT in the ratio 3:1.
(In general: In flow cytometry, cells or beads pass a laser one at a time.)

The target of experiment [2] is T1, soluble LIGHT amino acids 74-240 (Homo sapiens, UniProt O43557, K214E).
T1 construct: amino acids 74-240 LIGHT (R&D Systems, 664-LI-025); purchased R&D Systems 664-LI-025
Briefly: BIAcore (SPR) binding to soluble LIGHT 74-240. The method, then: Real-time binding interactions between captured antibody (chimeric anti-membrane LIGHT monoclonal antibody) captured on a biosensor matrix via goat anti-human Fc IgG and recombinant soluble LIGHT were measured by surface plasmon resonance (SPR) using the BIAcore system (GE Healthcare) according to manufacturer's instructions and standard procedures. Briefly, soluble LIGHT was diluted in HBS running buffer (GE Healthcare) and aliquots were injected through the immobilized protein matrices at a flow rate of […]. BIAevaluation software was used to calculate association rate (ka), dissociation rate (kd) and affinity (KD).
The specificity of two lead anti-membrane LIGHT mAbs to soluble LIGHT was determined by BIAcore analysis and compared to the KD calculated from the EC50 values in Table 7 (results in Table 9). In brief, mAbs 3D12, 3B04 were compared to a mAb that binds both soluble and membrane LIGHT, F19, (F19 IgG4 mAb from EP2292663). An irrelevant anti-HEL mAb, 2A11, was used as a negative control. The mAbs were captured on an anti-human Fc mAb coated chip and soluble LIGHT was passed over the surface and the kinetic parameters were calculated using BIAcore 3000 software. The soluble LIGHT preparations used were amino acids 74-240 LIGHT (R&D Systems, 664-LI-025) and 64-240 LIGHT (Abcam, ab82123).

Numbering of substitutions follows the chain as printed.

T1 sequence (O43557 74-240 K214E): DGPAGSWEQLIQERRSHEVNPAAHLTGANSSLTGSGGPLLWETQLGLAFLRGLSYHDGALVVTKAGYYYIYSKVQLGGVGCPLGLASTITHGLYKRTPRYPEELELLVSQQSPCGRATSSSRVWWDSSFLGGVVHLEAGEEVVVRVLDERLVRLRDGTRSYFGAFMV

B1: 3B04: parental mouse anti-membrane LIGHT antibody, VL SEQ ID NO 1, VH SEQ ID NO 5; tested as chimeric human IgG4 mAb (antibody, listed as Homo sapiens, V domains shown)
VH: QVQLQQPGAELVRPGASVTLSCKASGYTFTDYEMHWVKQTPVHGLEWIGEIDPETGDTAYSQKFKGKATLTADKSSSTAYMEFRSLTSEDSAVYYCSRETDYFFDYWGQGTTLTVSS
VL: DIQMTQTPASLSASVGETVTITCGASENIYGALNWYQRKQGKSPQLLIYGATNLADGMSSRFSGSGSGRQYSLKISSLHPDDFATYYCQNVLTTPWTFGGGTKLEIKR
Consider B1, for which the “Binding to LIGHT alanine substitution constructs versus WT LIGHT” value in experiment [1] was “no difference in binding”. In addition, in experiment [2], the “74-240 LIGHT Ka” value was 222000 M⁻¹ s⁻¹ and the “74-240 LIGHT Kd” value was found to be 0.00348 s⁻¹.

B2: 3D12: parental mouse anti-membrane LIGHT antibody, VL SEQ ID NO 41, VH SEQ ID NO 45; tested as chimeric human IgG4 mAb (antibody, listed as Homo sapiens, V domains shown)
VH: B1 VH with G26D, Y32S, M34I, D57G, S61N, F83L
VL: B1 VL with T7S, F83V, T93S
With B2, the “Binding to LIGHT alanine substitution constructs versus WT LIGHT” value in experiment [1] is “no difference in binding”. Besides, the “74-240 LIGHT Ka” value in experiment [2] amounted to 168000 M⁻¹ s⁻¹.
